# Patent US12338199B2, “Bis-octahydrophenanthrene carboxamides and protein conjugates thereof” (REGENERON PHARMACEUTICALS, INC., priority 2017, dated 2025)
# Read-outs that look alike come from different tables or passages of the source.
# T1: His9-hMSR1 (human MSR1 extracellular domain) (Homo sapiens, UniProt P21757)
# T1 construct: human MSR1 extracellular domain expressed with a N-terminal nonahistidine tag; purchased R&D Systems 2708-MS
# T1 sequence (P21757 77-451 limits assumed): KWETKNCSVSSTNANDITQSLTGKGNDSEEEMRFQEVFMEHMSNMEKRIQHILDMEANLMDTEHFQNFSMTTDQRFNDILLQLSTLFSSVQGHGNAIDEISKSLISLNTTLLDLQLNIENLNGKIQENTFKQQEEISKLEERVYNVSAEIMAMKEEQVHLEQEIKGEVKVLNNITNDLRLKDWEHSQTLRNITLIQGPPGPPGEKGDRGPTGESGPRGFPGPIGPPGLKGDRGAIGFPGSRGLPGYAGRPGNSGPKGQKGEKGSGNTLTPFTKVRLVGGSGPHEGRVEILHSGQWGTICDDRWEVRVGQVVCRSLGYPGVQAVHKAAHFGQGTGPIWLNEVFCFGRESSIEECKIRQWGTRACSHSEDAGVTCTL
# Key:
# THP1/LXR-Luc cells = test: LXR-luciferase reporter bioassay in PMA-differentiated THP1/LXR-Luc cells; format: cell-based, human; conditions: for S/N (signal to noise, ratio of RLU of standard one over RLU of standard eight) / EC50: PMA-differentiated THP1/LXR-Luc cells, 48 hours; for S/N (signal to noise, ratio of RLU of standard one over RLU of standard eight): luciferase activity; for EC50: luciferase activity (One-Glo), 10-point dose response 100 nM to 0.01 nM
# Excerpt: To test the efficacy of anti-MSR1 antibody-LXR conjugates in vitro, a cell-based LXR responsive luciferase reporter assay was developed. To generate the assay cell line, a LXR regulated luciferase reporter gene [Cignal Lenti LXR Reporter (luc) kit (Qiagen, Cat # CLS-001L)] was transduced into THP1 cells, and cells were selected for two weeks in puromycin. The lentivirus expresses the firefly luciferase gene under the control of a minimal CMV promoter and tandem repeats of the LXR transcriptional response element. The resulting cell line is referred to as THP1/LXR-Luc cells.
# THP1/LXR-Luc cells were seeded onto 96 well plates at 40,000 cells/well in media containing RPMI supplemented with 10% FBS and pencillin/streptomycin and subsequently differentiated with 200 nM Phorbol Myristate Acetate (PMA) for 3 days. After the 3-day differentiation period, three-fold serial dilutions of antibody drug conjugates, unconjugated antibodies, or free payloads in fresh media were added to the cells at final concentration ranging from 100 nM to 0.01 nM. Media alone served as a blank control. Forty-eight hours later, luciferase activity was determined after the addition of One-Glo™ reagent (Promega, Cat # E6130) to each well. Relative light units (RLUs) were measured on a Victor luminometer (PerkinElmer) and EC50 values were determined using a four-parameter logistic equation over a 10-point dose response curve (GraphPad Prism). The signal to noise (S/N) was determined by calculating the ratio of RLU of standard one over RLU of standard eight for each of the unconjugated anti-MSR1 antibodies or free payloads. “LP #” represents a linker-payload for which the corresponding structures are provided elsewhere herein, and “P #” represents a payload for which the corresponding structures are provided elsewhere herein.
# [1] = target: T1, His9-hMSR1 (human MSR1 extracellular domain); test: Biacore surface plasmon resonance binding kinetics; conditions: 25° C.; for kd (s^−1) / kd: * = no dissociation observed, kd fixed at 1.00E−05; for Kd: calculated from the kinetic rates, read-out: KD (Molar); for ka: His9-hMSR1 binding to captured antibody
# Procedure: The MSR1 antibodies disclosed herein were conjugated to various liver X receptor (LXR) payloads. This example describes how equilibrium dissociation constant (KD) values for human MSR1 reagents binding to human anti-MSR1 antibody-drug conjugates and their corresponding unconjugated parental antibodies were determined using a real-time surface plasmon resonance-based Biacore T200 biosensor.
# All binding studies were performed in 10 mM HEPES, 300 mM NaCl, 3 mM EDTA, and 0.05% v/v Surfactant Tween-20, pH 7.4 (HBS-ET) running buffer at 25° C. The Biacore CM4 sensor chip surface was first derivatized by amine coupling with the goat anti-human Fcγ specific polyclonal antibody (Jackson ImmunoResearch Laboratories, Cat # BR-1008-39) to capture anti-MSR1 monoclonal antibodies. Binding studies were performed on human MSR1 extracellular domain expressed with a N-terminal nonahistidine tag (His9-hMSR1; R&D Systems, Cat #2708-MS).
# The association rate (ka) and dissociation rate (kd) were determined by fitting the real-time binding sensorgrams to a 1:1 binding model with mass transport limitation using Scrubber 2.0c curve-fitting software. Binding dissociation equilibrium constant (KD) and dissociative half-life (t½) were calculated from the kinetic rates as: […]
# THP-1 cells = test: BODIPY-cholesterol efflux in THP-1 macrophages; format: cell-based, human
# Procedure: The ability of anti-MSR1 antibody-LXR conjugates to activate cholesterol efflux in a human macrophage cell line (THP-1; ATCC Catalog # TIB-202), was assessed using a fluorescent cholesterol analog.
# Cells were differentiated into macrophages by addition of 100 nM Phorbol-12 myristate 13-acetate (Sigma, Catalog #P 8139) to the media and subjected to further incubation for 96 hours.
# Percentage of BODIPY-cholesterol efflux was calculated using the following formula: [fluorescence in acceptor media/(fluorescence in acceptor media+fluorescence in cell lysate)]×100. Table 15 provides activated cholesterol efflux for the tested articles, and FIG. 15 illustrates the data in graph form.
Molecule,Kd [1],ka [1],kd [1],also measured
"H1H21234N (antibody, V domains shown) VH: QVQLQESGPGLVKPSETLSLTCTVTGGSISRNYWSWIRQPPGKGLEWIGYIYYSGSIDYNPSLKSRVTISVDTSKNQFSLKLSSMTAADTAVYYCARDRWNWKYGMDVWGQGTTVIVSS VL: EIVLTQSPGTLSLSPGERATLSCRASQTVRNNYLAWYHQKPGQAPRLLIYGASSRATGIPDRFSGSGSGTDFTLTISRLEPEDFTVYYCHQYGNSPWTFGQGTKMEIKR",,,,"stimulation of the THP/Luc cells (THP1/LXR-Luc cells; 48-hour time point, in words): did not have any impact"
"H1H21234N-N297Q (antibody, V domains shown) VH: QVQLQESGPGLVKPSETLSLTCTVTGGSISRNYWSWIRQPPGKGLEWIGYIYYSGSIDYNPSLKSRVTISVDTSKNQFSLKLSSMTAADTAVYYCARDRWNWKYGMDVWGQGTTVIVSS VL: EIVLTQSPGTLSLSPGERATLSCRASQTVRNNYLAWYHQKPGQAPRLLIYGASSRATGIPDRFSGSGSGTDFTLTISRLEPEDFTVYYCHQYGNSPWTFGQGTKMEIKR",0.0454 nM,220000 M⁻¹ s⁻¹,,"kd (s^−1) [1]: ≤ 1.00E−05* s^−1; S/N (signal to noise, ratio of RLU of standard one over RLU of standard eight) (THP1/LXR-Luc cells): No activation; EC50 (THP1/LXR-Luc cells): No activation; Maximum efflux (%) (THP-1 cells; 24-hour treatment, BODIPY-cholesterol efflux): 18.7%; cholesterol efflux (THP-1 cells; after 24 hours, in words): did not demonstrated any measurable cholesterol efflux"
"H1H27734P-N297Q (antibody, V domains shown) VH: EVQLVESRGGLVQPGGSLRLSCAASGFTFSSYAMSWVRQAPGKGLEWVSAISGSGGSTFYADSVKGRFTISRDNSKNTVYLQMNSLRAEDTAVYYCAKALVLRFLEWLGDYWGQGTLVTVSS VL: DIQMTQSPSTLSASVGDRVTITCRASQSISSWLAWFQQKPGKAPKLLIYKASSLESGVPSRFSGSGSGTEFTLTISSLQPDDFATYYCQQYKSYWTFGQGTKVEIKR",7.72 nM,77200 M⁻¹ s⁻¹,0.000596 s⁻¹,
"H1H27739P-N297Q (antibody, V domains shown) VH: EVQLVESGGGLVQPGGSLRLSCTASGFTFSSYAMSWVRQAPGKGLEWVSAISGTGSSTYFTDSVKGRFAISRDNSKNTLYLQMNSLRAEDTAVYYCAKDGEWLSTVTLFDYWGQGTLVTVSS VL: EIVMTQSPATLSVSPGERATLSCRASQSVSSNLAWYQQKPGQAPRLLIYGASTRATGIPARFSGSGSGTDFTLTISSLQSEDFALYYCQQYFIWPPHPTFGPGTKVDIKR",4.68 nM,119000 M⁻¹ s⁻¹,0.000555 s⁻¹,
"H1H27754P-N297Q (antibody, V domains shown) VH: EVQLVESGGGLVQPGGSLRLSCAASGFTFRTYAMTWVRQAPGKGLDWVSAITGDGGNTYYADSVKGRFTISRDNSKNTLYLQMNSLRAEDTAIYYCAKDQRFSFALYYFDYWGQGTLVTVSS VL: DIQMTQSPSSVSASVGDRVTITCRASQGISSWLAWYQQKPGNAPKLLIYAAFSLQSGVPSRFSGSGSGTDFTLTISSLQPEDFATYYCQQANNFPWTFGQGTKVEIKR",0.0499 nM,200000 M⁻¹ s⁻¹,,kd (s^−1) [1]: ≤ 1.00E−05* s^−1
"H1H27729P-N297Q (antibody, V domains shown) VH: QVQLVESGGGLVKPGGSLRLSCAASGFIFSDYYMSWIRQAPGKGLEWVSYISSSGTTIYGDSVKGRFTMSRDNAKNSLYLQMNSLRAEDTAVYYCARNYALFDYWGQGTLVTVSS VL: DIQMTQSPSSLSASVGDRVTITCQASQDISKYLNWYQQKPGKAPKLLIYYTSNLETGVPSRFSGSGSGTDFTFTISSLQPEDIATYYCHQSDYLPFTFGPGTKVDIKR",8.67 nM,105000 M⁻¹ s⁻¹,0.000906 s⁻¹,
"H1H27731P-N297Q (antibody, V domains shown) VH: QLQLQESGPGLVKPSETLSLTCTVSGGSISRISYYWGWIRQPPGKGLEWIGSIYDSGSTYYNPSLKSRVTISIDTSKNQFSLKLSSVTAADTAVYYCVRYSSSSAFAFDYWGQGTLVTVSS VL: DIQMTQSPSSVSASVGDRVTITCRASQGISSWLAWYQQKPGKAPKLLIYAASSLQSGVPSRFSGSGSGTDFTLTISSLQPEDFATYYCQQANSFPFTFGPGTKVDIKR",0.0855 nM,117000 M⁻¹ s⁻¹,1e-05 s⁻¹,
H1H21234N-N297Q-LP 13 (conjugate) VH: QVQLQESGPGLVKPSETLSLTCTVTGGSISRNYWSWIRQPPGKGLEWIGYIYYSGSIDYNPSLKSRVTISVDTSKNQFSLKLSSMTAADTAVYYCARDRWNWKYGMDVWGQGTTVIVSS VL: EIVLTQSPGTLSLSPGERATLSCRASQTVRNNYLAWYHQKPGQAPRLLIYGASSRATGIPDRFSGSGSGTDFTLTISRLEPEDFTVYYCHQYGNSPWTFGQGTKMEIKR,,,,"S/N (signal to noise, ratio of RLU of standard one over RLU of standard eight) (THP1/LXR-Luc cells): 9.6; EC50 (THP1/LXR-Luc cells; read-out: EC50): 0.98 nM"
